# Measured values: the nanobody polyreactivity screen of Harvey et al. (2022)
# Experiment: yeast display, Sf9 membrane polyspecificity reagent, FACS + sequencing; frameworks hold sequencing errors
# Method in brief: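 Genes from sorted yeast were amplified by colony PCR, read by MiSeq 2 × 250 sequencing and filtered on CDR length. These cells carried a synthetic nanobody library in Saccharomyces cerevisiae BJ5465 and were sorted by FACS into low and high (top ~1%) gates on anti-HA and streptavidin fluorescence. Polyreactivity is labelled according to the gate of origin.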
row,Sequence,polyreactivity (PSR sort gate)
1,QVQLVESGGGLVQAGGSLRLSCAASGSTLNSYVMGWYRQAPGKERELVATIRSGSSTNYADSVKGRFTISRDNAKNTVYLQMNSLKPEDTAVYYCAGDAYSLCYDSWGQGTQVTVSS,low polyreactivity
2,QVQLVESGGGLVQAGGSLRLSCAASGSTLNVNAMGWYRQAPGKERELVAAITSGGSTYYADSVKGRFTISRDNEKNTVYLQIHSLKPEDTAVYYCNKRRSWRPTYPIGGSGFYYWGQGTQVTVSS,low polyreactivity
3,QVQLVESGGGLVQAGGSLRLSCAASGSTLPGNVMAWYRQAPGKERELVAAISKRGASTYYADSVKGRFTISRDNAKNTVYLQMNSLKPEDTAVYYCATRTRGSVFRFDYWGQGTQVTVSS,high polyreactivity
4,QVQLVESGGGLVQAGGSLRLSCAASGSTLPNNAMGWYRQAPGKERELVAAISWRGTRTYYADSVKGRFTISRDNAKNTVYLQMNSLKPEDTAVYYCAAGGVGAYDYWGQGTEVTVSS,high polyreactivity
5,QVQLVESGGGLVQAGGSLRLSCAASGSTLPRYAMGWYRQAPGKEREFVAAMTWRGGSTYYADSVKGRFTISRDNAKNTVYLQMNSLKPEDTAVYYCNTHRNGGSHRRYNYWGQGTQVTVSS,high polyreactivity
6,QVQLVESGGGLVQAGGSLRLSCAASGSTLPVNAMGWYRQAPGKERELVAAINRDGSTNYADSVKRPFTISRDNAKNNVYLQMNCLKPDDTAVYYCGADGFGYPGKRYDYWGHGTQVTVSS,low polyreactivity
7,QVQLVESGGGLVQAGGSLRLSCAASGSTLQINGMGGYRQAPGKERELVAAISIGGDTNYADSVKGRFTISRDNAKNTEMNSLKTEDTAVYYCNTDYFGSLVVVIFDYWGQGTQVTVSS,low polyreactivity
8,QVQLVESGGGLVQAGGSLRLSCAASGSTLQINGMGWYRQAPGKERELVAAISIGSDTNYADSVKGRFTISRDNAKNTEMNSLKPEDTAVYYCAAQRRYHQDTTIGPGNYYYWGQGTQVTVSS,low polyreactivity
9,QVQLVESGGGLVQAGGSLRLSCAASGSTLQVNAMGWYRQAPGNERELVATISFSGGSTYYADSVKGRFTISRDNAKYTVYLQMNSLKPEDTAVYYCNADSFVSWYNQFWYQATYDYWGQGTEVTVSS,low polyreactivity
10,QVQLVESGGGLVQAGGSLRLSCAASGSTLQVYAMGWYREAPGKERELVAAISKSGGRTYYADSVKGRFSISRDNAKNTFYLQMNSLKPEDTAVYYCAADVGTAQSTYGYWGQGTQVTVSS,high polyreactivity
11,QVQLVESGGGLVQAGGSLRLSCAASGSTLRRYAMGWYRQAPGKERELVAAISGTGSRTYYADSVKGRFTISRDNAKNTVYLQMNSLKPEDTAVYYCNASPYRLTENDYWGQGTQVTVSS,high polyreactivity
12,QVQLVESGGGLVQAGGSLRLSCAASGSTLRRYAMGWYRQAPGKERELVAINSSGGITYYADSVKGRVTISRDNAKNTVYLQMNSLKPEDTAVYYCNARRPAPGYGYDYWGQGTQVTVSS,low polyreactivity
13,QVQLVESGGGLVQAGGSLRLSCAASGSTLRRYAMGWYRQAPGTERELVASNSRGGTSTYYADSVKGRFTISRDNAKNTVYLQMKSLKPEDTAVYYCAAATPYRYNYWGQGTQVTVSS,high polyreactivity
14,QVQLVESGGGLVQAGGSLRLSCAASGSTLSDYVMGWYRQAPGKERELVAAITSGGSTSYADSVKGRFTISRDNAKNTVYLQMNSLKPEDTAVYYCNATLLFPLLYGPESGEFDYWGQGTQVTVSS,low polyreactivity
15,QVQLVESGGGLVQAGGSLRLSCAASGSTLSGNAMGWYRQAPGKERELVAAIRWSGDITYYADSVKGRFTISRDNAKNTVYLQMNSLKPEDTAVYYCAATLGNRWFHYNYWGQGTQVTVSS,low polyreactivity
16,QVQLVESGGGLVQAGGSLRLSCAASGSTLSKYAMGWYRQAPGKERELVAAISQRGGSTYYADSVKGRFTISRDNAKNTVYLQMNSLKPEDTAVYYCNALQRRYGYWGQGTQVTVSS,high polyreactivity
17,QVQLVESGGGLVQAGGSLRLSCAASGSTLSKYGMGWYRQAPGKERDLVAAISYSSGSTYYADSVKGRFTISRDNAKNTVYLEMNSLKPEDTAVDYCAADRFRSLHYWTYDYWGQGTQVTVSS,high polyreactivity
18,QVQLVESGGGLVQAGGSLRLSCAASGSTLSVNAMGWYRQAPGKERELVAAIDFDGGDTYYADSVKGRFTISRDNAKNTVYLQMKSLKPEDTAVYFCAADIGGQYDYLADDYWGQGNQVTVSS,low polyreactivity
19,QVQLVESGGGLVQAGGSLRLSCAASGSTLSVNAMGWYRQAPGKERELVAAIDFDGGDTYYADSVKGRFTISRDNAKNTVYLQMNSLKPEDTAVYYCAADIGGQYDYLADDYWGQGTQVTVSS,low polyreactivity
20,QVQLVESGGGLVQAGGSLRLSCAASGSTLTRNAMGWYRQAPGKERELVAAITTSGGRTYYADSVKGRFTISRDNAKNTVYLQMNSLKPEDTAVYYCAARQRSEYVSGSLFYYWGQGTQVTVSS,high polyreactivity
21,QVQLVESGGGLVQAGGSLRLSCAASGSTLVFYAMGWYRQAPGKERELVAAIDSDGGTYYADSVKGRFTISRDNAKNTVYLQMNSLKPEDTAVYYCNAAGALIFGEGYYVEYDYDYWGQGTQVTVSS,low polyreactivity
22,QVQLVESGGGLVQAGGSLRLSCAASGSTLVTNPMGWYRQAPGKERELVAAITFSGGTTYYADSVKGRFTISRDTAKNTVYLHMNSLKPEDTAVYYCAAEIWLEYVGYDYWGQGTQVTVSS,high polyreactivity

row,Sequence,polyreactivity (PSR sort gate)
1,QVQLVESGGGLVQAGGSLRLSCAASGSTLVYNGMVWYRQAPGKEREFVAAIRSNDGSTYYADSVKGRFTISRDNAKNTVYLQMNSLKPEDTAVYYCNNDVWDGYDWPEFDYWGQGTQVTVSS,low polyreactivity
2,QVQLVESGGGLVQAGGSLRLSCAASGSTLWFNAMGLYRPAPGKERELVAAINWSGGSTYYADSVKGRFTISRDNAKNTVYLQMNSLKPEDTAVYYCAAVYQYVHYVWYDYWGQGTQVTVSS,low polyreactivity
3,QVQLVESGGGLVQAGGSLRLSCAASGSTLWRYAMGWYRQAPGKEREFVAAISGSGGSTYYADSVKGRFTISRDNAKNTVYLLMNSLKPEDTAVYYCAASRKYRNPDRSMYYWGQGTQVTVSS,high polyreactivity
4,QVQLVESGGGLVQAGGSLRLSCAASGSTLWRYTMGWYRQAPGKVREFVADINRGSSTNYADSVKGRFTISRDNAKNSVYLQINSLKPEDTAVYYCAAAKVHYGYNSWYYYWRQGTQVTVSS,low polyreactivity
5,QVQLVESGGGLVQAGGSLRLSCAASGSTLWYYAMGWYRQAPGKERELVADITSSGNTNYADSVKGRFTISRDNAKNTVYLQMISLKPEDTAVYYCAADVTKYHDGHEYDYWGQGTQVTVSS,low polyreactivity
6,QVQLVESGGGLVQAGGSLRLSCAASGSTLYAYAMGWYRQAPGKERELVAAIRTGGSTYYADSVKGRFTISRDNAKNTVYLQMNSLKPEDTAVYYCAADHGYQYGYWGQGTQVTVSS,low polyreactivity
7,QVQLVESGGGLVQAGGSLRLSCAASGSTLYKYAMGWYRQAPGKERELVAAISWSGSSTYYADSVKGRFTISRDNAKNTVYLQMNSLKPEDTAVYYCAAYPRPYIGYTDGYVWYEFDYWGQGTQVTVSS,low polyreactivity
8,QVQLVESGGGLVQAGGSLRLSCAASGSTLYPYAMGWYRQAPGKERELVAVITLRGGSTYYADSVKGRFTISRDNAKNTVYLQMNSLKPEDTAVYYCATGNSKGRRTVRYGYWGQGTQVTVSS,high polyreactivity
9,QVQLVESGGGLVQAGGSLRLSCAASGSTLYPYDMGWYRQAPGTERELVAAIDSGGSTNYADSVKGRFTISRDNAKNTVYLQMNSLKPEDTAVYFFAADASGENDYWGQGTQVTVSS,low polyreactivity
10,QVQLVESGGGLVQAGGSLRLSCAASGSTLYRNAMGWYRQQPGKERELVAGITSSGTTTYYADSVKGRFTISRDNAKNTVYLQMNSLKPEDTAVYYCAARSLGFYYYDMDYWGQGTQVTVSS,low polyreactivity
11,QVQLVESGGGLVQAGGSLRLSCAASGSTLYRYAMGWYRQAPGKEREFVAAISVSGARTYYADSVKGRFTISRDNAKNTVYLQMNSLKPEDTAVYYCAARGGYQYDYWGQGTQVTVSS,high polyreactivity
12,QVQLVESGGGLVQAGGSLRLSCAASGSTLYRYAMGWYRQAPGKERELVAAISSAGSTHYADSVKGRFTISRDNAKNTVYLQMNSLKPEDTAVYYCAAKRYLKYGYWGQGTQVTVSS,high polyreactivity
13,QVQLVESGGGLVQAGGSLRLSCAASGSTLYRYTMGWYRQAPGKERELVAAISSGGNTYYADSVKGRFTISRDNAKNTVYLQMNSLKPEDTAVYYCAAEDSVYIPYYDAYDYWGQGTQVTVSS,low polyreactivity
14,QVQLVESGGGLVQAGGSLRLSCAASGSTLYSNAMGWYRQAPGKERELVATIDWSGGRTYYADSVKGRFTISRDNAKNTVYLQMNSLKPEDTAVYYCAARQSRDFRYRGFYYWGQGTQVTVSS,high polyreactivity
15,QVQLVESGGGLVQAGGSLRLSCAASGSTLYTYAMGWYRQAPGKERELVATISWSGSSTYYADSVKGRFTISRDNAKNTVYLQMNSLKPEDTAVYDCAAPYHYWYRLDYWGQGTQVTVSA,high polyreactivity
16,QVQLVESGGGLVQAGGSLRLSCAASGSTLYVYTMGWYRQAPGKERELVATINTSGSRTYYADSVKGRFTISRDNAKNTVYLQMNSLKPEDTAVYYCAAEYVGKGTPDDYDYWGQGTQVTVSS,high polyreactivity
17,QVQLVESGGGLVQAGGSLRLSCAASGSTLYYNAMGWYRQAPGKERELVAAISWSGGSTYYADSVKGRFTISRDNAKNTVYLQMNSLKPEDTAVYYCAADVNYYQHRLYYWGQGTQVTVSS,low polyreactivity
18,QVQLVESGGGLVQAGGSLRLSCAASGSTLYYYAMGWYRQAPGKERELVAAITYSGGNTYYADSVKGRFTISRDNAKNTVYFQMNSLKPEDTAVYYCAADDWSSDYIRYEYWGQGTQVTVSS,low polyreactivity
19,QVQLVESGGGLVQAGGSLRLSCAASGSTLYYYAMGWYRQAPGKERELVATITNGGSTNYADSVKGRFTISRYNAKNTVYLQMNSLKPEDTAVYYCNARRGYWGSNYWGEGTQVTVSS,high polyreactivity
20,QVQLVESGGGLVQAGGSLRLSCAASGSTLYYYAMGWYRQAPGTERELGAAITWSGDSTYYADSVKGRFTISRDNAKNTVYLQMNSLKPEDTAVYYCAAEVESYDPYYTYDYWGQGTQVTVSS,high polyreactivity
21,QVQLVESGGGLVQAGGSLRLSCAASGSTNGRNAIGWSRQAPRKERELVAAISSGGSTSYADSVKVRFTISRDNAKYTDYLQMNSLKPVDTAVYYCAAQSVGSQYDYWGQGTQVTVSS,low polyreactivity
